{"source": "the supplement of paper PMC12042874", "note": "± gives the uncertainty stated by the source.", "data": [{"experiment": "amyloid nucleation score (Sup35N fusion, yeast selection) (log enrichment); library NNK3; higher = more nucleation; inactive = no reads after selection", "procedure,_shortened": "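For the nucleation score, DiMSum gave the log enrichment of output over input reads, centred on the mode score of non-aggregating sequences. Psi-negative yeast expressing Sup35N fused to peptides of 20 random codons were induced with 100 μM copper sulfate for 24 hours and grown 7 days at 30°C on medium lacking adenine and uracil. Input and output plasmid inserts were Illumina-sequenced, and sequences with under 100 input reads were excluded.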", "values": [{"substance": "SIDVLKTNINDIRFVIKIRR", "amyloid nucleation score": "inactive"}, {"substance": "YPNIERFTETWISYVDQNRG", "amyloid nucleation score": "-0.083 ± 0.58"}, {"substance": "FNFLPNGWRGKVHIGYYGNT", "amyloid nucleation score": "inactive"}, {"substance": "PNAEGFFSVSGFCVVLNQSM", "amyloid nucleation score": "1.34 ± 0.087"}, {"substance": "QSLLDLMSFLMCV", "amyloid nucleation score": "inactive"}, {"substance": "SRCIDGSAWASVAQRRSFSE", "amyloid nucleation score": "-0.098 ± 0.85"}, {"substance": "VIFNHVLACADYGVHKVVDL", "amyloid nucleation score": "inactive"}, {"substance": "PFPHKDQYHGGGKWPDE", "amyloid nucleation score": "inactive"}, {"substance": "CDFYVNGTGPSETRWNSKEH", "amyloid nucleation score": "inactive"}, {"substance": "RTSAHGNYFSQLESLRKMML", "amyloid nucleation score": "inactive"}, {"substance": "QNNTLGVSLVTFRGLVE", "amyloid nucleation score": "inactive"}, {"substance": "PLVMGFIRVHCIFRRRFG", "amyloid nucleation score": "inactive"}, {"substance": "RTLYMLRIALGHGPVTLEI", "amyloid nucleation score": "inactive"}, {"substance": "SGITIEF", "amyloid nucleation score": "inactive"}, {"substance": "IDLSAMFFAFFVIFVFVWIW", "amyloid nucleation score": "inactive"}, {"substance": "TFAMGLSARSISYCTNTRCP", "amyloid nucleation score": "0.464 ± 0.4"}, {"substance": "FLDDSFVFGNRRRWAWGCRG", "amyloid nucleation score": "inactive"}, {"substance": "GTEDWPNHGKKTLAINYLCP", "amyloid nucleation score": "inactive"}, {"substance": "NALLAFPYQGSMHKCGLGRY", "amyloid nucleation score": "inactive"}, {"substance": "GMFRDHAYADCRGLTY", "amyloid nucleation score": "inactive"}, {"substance": "VVMRFCWRKSTIVISFVTVM", "amyloid nucleation score": "inactive"}, {"substance": "EGNMLASRSSGEPS", "amyloid nucleation score": "inactive"}, {"substance": "TVQNVLCHCMMSNMAYWGHQ", "amyloid nucleation score": "2.63 ± 0.082"}, {"substance": "SYVCIIYGNDGSLSRCKDDL", "amyloid nucleation score": "inactive"}, {"substance": "LDSYVDFLTYFSQKGSRHHL", "amyloid nucleation score": "inactive"}, {"substance": "DFSTDTHWKVWW", "amyloid nucleation score": "0.566 ± 0.43"}, {"substance": "TVLYLNDDIATYHRMLVFRV", "amyloid nucleation score": "inactive"}, {"substance": "RILLFMHPMSICMSP", "amyloid nucleation score": "inactive"}, {"substance": "FKLTDLCC", "amyloid nucleation score": "inactive"}, {"substance": "AMFFYRWRCVGTGSFVMTGV", "amyloid nucleation score": "inactive"}, {"substance": "DSWHFFCFIMVCIVKYWFFA", "amyloid nucleation score": "inactive"}, {"substance": "FIYYDRFVKPSPKQTVSFSA", "amyloid nucleation score": "inactive"}, {"substance": "IHWGRAGATEAAST", "amyloid nucleation score": "inactive"}, {"substance": "SCRVTPVLR", "amyloid nucleation score": "inactive"}, {"substance": "CRNCR", "amyloid nucleation score": "inactive"}, {"substance": "CAQTYPIRMYS", "amyloid nucleation score": "inactive"}, {"substance": "YDCVIYSVAECLYVTSSFIE", "amyloid nucleation score": "0.253 ± 0.18"}, {"substance": "NSVRLCRCEVIGQTIRDHGF", "amyloid nucleation score": "inactive"}, {"substance": "IVWEGSSPLVLIKHGICKQR", "amyloid nucleation score": "inactive"}, {"substance": "VWEFICVGVLC", "amyloid nucleation score": "2.65 ± 0.05"}, {"substance": "ARYRHGFTALRND", "amyloid nucleation score": "inactive"}, {"substance": "KYNPTMSNYSGLLWKIGVGT", "amyloid nucleation score": "inactive"}, {"substance": "SICIRFF", "amyloid nucleation score": "inactive"}, {"substance": "YLSVVRGPMNRCSYYKVMTE", "amyloid nucleation score": "inactive"}, {"substance": "WDEIIY", "amyloid nucleation score": "inactive"}, {"substance": "CCMLC", "amyloid nucleation score": "-0.309 ± 1"}, {"substance": "VFMCILDWRVNSHMCLKLFH", "amyloid nucleation score": "inactive"}, {"substance": "LARPHDNSGCCSSNCDLRSC", "amyloid nucleation score": "inactive"}, {"substance": "GFGFRAVMPMLYFEYYGQR", "amyloid nucleation score": "0.793 ± 0.12"}, {"substance": "TFIHRHINNTSQLPGSFMKL", "amyloid nucleation score": "inactive"}, {"substance": "ALIYNATGLTYF", "amyloid nucleation score": "inactive"}, {"substance": "RWNMLIDVHLNVYHRQDRWC", "amyloid nucleation score": "0.636 ± 0.23"}, {"substance": "SGIIWQYNARLE", "amyloid nucleation score": "inactive"}, {"substance": "PFLPAANNCVKQRCCFSGAL", "amyloid nucleation score": "inactive"}, {"substance": "IYIHQDPVFKGCYWLRRGVE", "amyloid nucleation score": "inactive"}, {"substance": "LVTSTSMG", "amyloid nucleation score": "2.77 ± 0.068"}, {"substance": "NLWVEGRKAQENMDPDARSR", "amyloid nucleation score": "inactive"}, {"substance": "RDRWI", "amyloid nucleation score": "inactive"}, {"substance": "IRFAAMFFALLLRRDESSYE", "amyloid nucleation score": "inactive"}, {"substance": "ISIFSIRNMVYNLQVRLVLE", "amyloid nucleation score": "inactive"}, {"substance": "HTVVPNRVNSPCVWWLFFVW", "amyloid nucleation score": "1.3 ± 0.11"}, {"substance": "SCWKTHSAKNSNGS", "amyloid nucleation score": "inactive"}, {"substance": "PKIAGFSGGTCTVA", "amyloid nucleation score": "inactive"}, {"substance": "LTVRKSY", "amyloid nucleation score": "inactive"}, {"substance": "FRACIVLYNTVHVVHFNISR", "amyloid nucleation score": "0.565 ± 0.46"}, {"substance": "IDVTQERRVGDSTCALGTH", "amyloid nucleation score": "-0.168 ± 0.73"}, {"substance": "SPCYISINTFPVRKILYPCI", "amyloid nucleation score": "-0.264 ± 0.64"}, {"substance": "TTNDWHTFSGMVIKGWHIGK", "amyloid nucleation score": "inactive"}, {"substance": "YIRELARPTLSRIKRLAPIS", "amyloid nucleation score": "inactive"}, {"substance": "KSSTNMEMRMSHLGLLIGEV", "amyloid nucleation score": "inactive"}, {"substance": "TVVIVPNWPVCRGHDFGERC", "amyloid nucleation score": "inactive"}, {"substance": "SNQLSFLYNN", "amyloid nucleation score": "-0.409 ± 0.76"}, {"substance": "YTGSVRFVEM", "amyloid nucleation score": "inactive"}, {"substance": "TVERILC", "amyloid nucleation score": "inactive"}, {"substance": "LSTFMWNQAVWTPRIFWRCA", "amyloid nucleation score": "inactive"}, {"substance": "GGFRISHSIC", "amyloid nucleation score": "inactive"}, {"substance": "VGSYVGRAVVEGYNCRVDTG", "amyloid nucleation score": "inactive"}, {"substance": "VNKNVMWHDNNKFFHPFRAI", "amyloid nucleation score": "1.6 ± 0.082"}, {"substance": "FKSVIESTLMIETDY", "amyloid nucleation score": "inactive"}, {"substance": "RPVVWYISRTSVVLDCAWGS", "amyloid nucleation score": "inactive"}, {"substance": "FQCFFRVLVV", "amyloid nucleation score": "inactive"}, {"substance": "VMTIGTRV", "amyloid nucleation score": "inactive"}, {"substance": "QTSST", "amyloid nucleation score": "inactive"}, {"substance": "IEVQFENFSCSR", "amyloid nucleation score": "inactive"}, {"substance": "VDVDPVSSD", "amyloid nucleation score": "inactive"}, {"substance": "NSTNMDSFGIPLNRILWMLN", "amyloid nucleation score": "inactive"}, {"substance": "MSPIDGDDSG", "amyloid nucleation score": "inactive"}, {"substance": "EPGSANRSSESNCRVGGTDD", "amyloid nucleation score": "inactive"}, {"substance": "SVYCCIDKLLHSAKSRLFMM", "amyloid nucleation score": "inactive"}, {"substance": "LFYSTARCEKSRCVMGRMRG", "amyloid nucleation score": "inactive"}, {"substance": "AMLLGFLGCGCKLHACCDY", "amyloid nucleation score": "inactive"}, {"substance": "SSQLDHVRLSGYVLTLEGPF", "amyloid nucleation score": "inactive"}, {"substance": "RSVYYRSLLGTNYCSFLLFD", "amyloid nucleation score": "inactive"}, {"substance": "IRESFINGVYMVVSEFKCFT", "amyloid nucleation score": "inactive"}, {"substance": "LFRDKDVDVVSSN", "amyloid nucleation score": "inactive"}, {"substance": "SALPQH", "amyloid nucleation score": "inactive"}, {"substance": "EGSHVPIILGYREFCVFILT", "amyloid nucleation score": "inactive"}, {"substance": "QTQKLFQYI", "amyloid nucleation score": "inactive"}, {"substance": "FYFVGKYWRGDEYFDFRLAV", "amyloid nucleation score": "inactive"}, {"substance": "WKFINDIASN", "amyloid nucleation score": "inactive"}, {"substance": "FSILCKLVLRQLKNGSFYGF", "amyloid nucleation score": "-0.329 ± 0.77"}, {"substance": "RVVLHITGLLPSSKKGVRGE", "amyloid nucleation score": "0.433 ± 0.25"}, {"substance": "TTGMRYCLVFDIGFSFWLFM", "amyloid nucleation score": "inactive"}, {"substance": "HNNLLSCYLMAPVFHSMMSE", "amyloid nucleation score": "inactive"}, {"substance": "PKSLLVPIIRPMQVWRKFDL", "amyloid nucleation score": "inactive"}, {"substance": "WHSYTKLCGRTSPPSSTLTG", "amyloid nucleation score": "inactive"}, {"substance": "VVSAV", "amyloid nucleation score": "inactive"}, {"substance": "CFRVYVPNSKSDDL", "amyloid nucleation score": "inactive"}, {"substance": "CDAAWPVNSPFWYLFLWC", "amyloid nucleation score": "inactive"}, {"substance": "YFEVDNLRRIQRRLICLGPE", "amyloid nucleation score": "0.891 ± 0.27"}, {"substance": "YPDNIFFCQSN", "amyloid nucleation score": "inactive"}, {"substance": "NYEARLSG", "amyloid nucleation score": "inactive"}, {"substance": "YLWRQYYALFCYCFWNLKGP", "amyloid nucleation score": "inactive"}, {"substance": "PCTMDESRYLVMYFHFPMSV", "amyloid nucleation score": "inactive"}, {"substance": "ISRSVIIDSQRGLCCQTWDW", "amyloid nucleation score": "inactive"}, {"substance": "HLFSNTWYTK", "amyloid nucleation score": "inactive"}, {"substance": "KIHRAGDYWVMSNR", "amyloid nucleation score": "inactive"}, {"substance": "SFNVSRWPRKWISLNCLKIS", "amyloid nucleation score": "inactive"}]}]}
